Data from the supplement of paper PMC12338614.
± gives the uncertainty stated by the source.

B1: library; numbered along this chain (parent)
chain: MEVVDPQQLGMFTEGELMSVGMDTFIHRIDSTEVIYQPRRKRAKLIGKYLMGDLLGEGSYGKVKEVLDSETLCRRAVKILKKKKLRRIPNGEANVKKEIQLLRRLRHKNVIQLVDVLYNEEKQKMYMVMEYCVCGMQEMLDSVPEKRFPVCQAHGYFCQLIDGLEYLHSQGIVHKDIKPGNLLLTTGGTLKISDLGVAEALHPFAADDTCRTSQGSPAFQPPEIANGLDTFSGFKVDIWSAGVTLYNITTGLYPFEGDNIYKLFENIGKGSYAIPGDCGPPLSDLLKGMLEYEPAKRFSIRQIRQHSWFRKKHPPAEAPVPIPPSPDTKDRWRSMTVVPYLEDLHGADEDEDLFDIEDDIIYTQDFTVPGQVPEEEASHNGQRRGLPKAVCMNGTEAAQLSTKSRAEGRAPNPARKACSASSKIRRLSACKQQ

Variants of: B1
Test: STK11 functional score (HeLa growth suppression), rescaled enrichment; synonymous median = 1, nonsense median = 0 (normalised score)
Conditions: with HeLa; variant type: missense
In short: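 HeLa cells carrying an AAVS1 landing pad received codon-optimised STK11 libraries made by codon randomisation (POPCode), integrated by Bxb1, with three regions each transfected three times. Integrants that were BFP-negative and mCherry-positive were sorted by FACS 4–5 days after electroporation and then grown for about two weeks. Tiled amplicons from gDNA were sequenced on NextSeq at ~2 million reads per tile. The functional score is a wild-type-corrected log ratio of post- to pre-selection counts, rescaled to the synonymous and nonsense medians, merged across codons and replicate transfections, and given a bootstrapped error.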

STK11 functional score of substitutions, site by site:
E374: I 1.46 ± 0.25, V 0.836 ± 0.41, A 0.915 ± 0.21, H 1.06 ± 0.53, S 1.46 ± 0.33, R 1.61 ± 0.28, L 1.2 ± 0.38, F 1.33 ± 0.3, P 1.42 ± 0.26, C 1.51 ± 0.19, W 1.55 ± 0.14, G 1.12 ± 0.33, K 1.47 ± 0.53, Y 1.29 ± 0.38, D 0.971 ± 0.47, T 1.52 ± 0.31, Q 0.822 ± 0.78
G370: I 1.6 ± 0.29, E 1.43 ± 0.25, V 0.706 ± 0.17, L 1.42 ± 0.27, D 1.24 ± 0.39, F 1.5 ± 0.27, S 1.52 ± 0.23, A 1.21 ± 0.58, Q 1.55 ± 0.18, R 1.16 ± 0.47, P 1.59 ± 0.27, W 1.41 ± 0.31
T363: Q 1.52 ± 0.15, N 1.03 ± 0.33, R 1.14 ± 0.24, S 1.34 ± 0.17, H 1.17 ± 0.46, I 0.824 ± 0.19, M 1.59 ± 0.17, W 1.19 ± 0.16, C 1.33 ± 0.48, F 0.261 ± 0.1, L 1.17 ± 0.15, Y 1.18 ± 0.44, P 1.34 ± 0.17, E 1.6 ± 0.22, D 1.45 ± 0.16, G 1.58 ± 0.24, A 0.828 ± 0.21, V 1.2 ± 0.16
H379: V 1.46 ± 0.26, I 1.53 ± 0.16, P 1.46 ± 0.23, A 1.38 ± 0.37, D 1.18 ± 0.35, E 0.586 ± 0.27, T 1.31 ± 0.18, W 0.788 ± 0.29, L 1.09 ± 0.32, G 1.11 ± 0.57, F 1.1 ± 0.23, S 1.55 ± 0.27, R 1.36 ± 0.18, K 1.37 ± 0.22, Y 1.39 ± 0.47, M 1.52 ± 0.15
V368: P 1.46 ± 0.19, D 1.53 ± 0.14, G 1.38 ± 0.2, R 0.87 ± 0.44, S 1.1 ± 0.19, F 0.859 ± 0.25, Y 1.54 ± 0.24, T 1.56 ± 0.18, W 0.786 ± 0.6, E 1.42 ± 0.22, H 1.08 ± 0.6, C 1.58 ± 0.18, Q 0.833 ± 0.5, L 1.35 ± 0.23, A 1.36 ± 0.22, I 1.53 ± 0.16
P369: L 1.13 ± 0.25, H 0.727 ± 0.16, T 1.53 ± 0.11, F 1.26 ± 0.39, C 1.31 ± 0.39, V 1.21 ± 0.15, W 1.49 ± 0.22, S 1.51 ± 0.22, A 1.43 ± 0.18, Y 1.41 ± 0.32, Q 1.43 ± 0.23, I 1.21 ± 0.27, K 1.42 ± 0.26, G 1.56 ± 0.26, D 1.61 ± 0.15, R 1.44 ± 0.18
Q371: G 1.03 ± 0.36, E 1.26 ± 0.48, I 1.52 ± 0.3, D 1.43 ± 0.11, C 1.36 ± 0.37, W 0.748 ± 0.14, H 1.15 ± 0.68, S 1.32 ± 0.15, R 1.55 ± 0.15, F 1.12 ± 0.24, M 1.46 ± 0.33, A 1.6 ± 0.27, P 1.3 ± 0.51, L 1.44 ± 0.17, V 1.49 ± 0.2, Y 1.04 ± 0.54
S378: C 1.42 ± 0.11, A 1.44 ± 0.19, G 0.914 ± 0.31, W 0.76 ± 0.1, N 1.56 ± 0.47, Y 1.35 ± 0.35, V 1.04 ± 0.17, L 0.82 ± 0.19, R 1.16 ± 0.39, Q 0.786 ± 0.15, D 1.5 ± 0.17, M 1.11 ± 0.13, T 1.4 ± 0.26, P 1.38 ± 0.24, F 1.41 ± 0.43, K 1.6 ± 0.28, I 1.26 ± 0.39
N380: Q 1.47 ± 0.34, E 1.48 ± 0.33, A 1.51 ± 0.23, P 1.59 ± 0.26, I 1.04 ± 0.29, K 1.42 ± 0.48, F 1.06 ± 0.12, M 1.55 ± 0.12, R 1.56 ± 0.24, C 1.57 ± 0.28, S 0.982 ± 0.22, H 1.48 ± 0.38, G 1.57 ± 0.31, L 0.908 ± 0.27, T 1.31 ± 0.45
D365: A 0.704 ± 0.15, P 1.56 ± 0.18, H 1.34 ± 0.34, F 0.997 ± 0.31, I 1.47 ± 0.25, V 1.14 ± 0.41, N 0.613 ± 0.79, G 1.55 ± 0.15, Y 1.38 ± 0.14, C 1.51 ± 0.17, L 1.27 ± 0.14, M 1.59 ± 0.14, W 1.32 ± 0.24, R 1.61 ± 0.14, S 1.51 ± 0.26, E 0.893 ± 0.49
I360: M 0.866 ± 0.14, L 1.13 ± 0.16, K 1.31 ± 0.4, S 1.11 ± 0.38, V 1.49 ± 0.28, W 0.807 ± 0.13, Y 1.52 ± 0.2, R 0.694 ± 0.27, D 0.487 ± 0.42, N 1.11 ± 0.67, F 0.809 ± 0.12, G 1.44 ± 0.23
P373: Q 1.55 ± 0.27, M 1.56 ± 0.17, L 1.13 ± 0.38, D 1.58 ± 0.32, T 1.11 ± 0.17, W 1.6 ± 0.2, G 1.53 ± 0.25, R 0.782 ± 0.29, N 1.59 ± 0.28, A 1.08 ± 0.17, H 1.49 ± 0.37, V 0.868 ± 0.14, F 1.26 ± 0.47, C 1.32 ± 0.48, E 1.51 ± 0.31, I 1.31 ± 0.18, S 1.44 ± 0.32
T367: A 1.39 ± 0.11, P 1.41 ± 0.41, K 0.53 ± 0.42, I 1.38 ± 0.23, R 1.32 ± 0.27, Y 1.54 ± 0.2, S 1.51 ± 0.24, F 1.36 ± 0.18, W 1.4 ± 0.32, G 1.6 ± 0.14, C 1.4 ± 0.41, V 1.58 ± 0.26, E 1.5 ± 0.15, L 1.46 ± 0.18
I361: D 1.5 ± 0.17, V 1.6 ± 0.24, R 1.53 ± 0.18, N 1.27 ± 0.24, L 1.31 ± 0.35, K 0.624 ± 0.65, A 1.47 ± 0.26, F 0.984 ± 0.13, T 1.58 ± 0.47, Q 0.616 ± 0.2, G 0.895 ± 0.29, H 1.21 ± 0.46, E 1.52 ± 0.26, Y 0.312 ± 0.54, S 1.46 ± 0.16, M 1.09 ± 0.39, W 1.62 ± 0.16
V372: G 1.09 ± 0.47, T 1.5 ± 0.21, A 1.48 ± 0.16, P 1.48 ± 0.24, K 1.6 ± 0.24, M 0.74 ± 0.69, F 1.12 ± 0.35, Q 1.49 ± 0.16, N 1.54 ± 0.25, E 1.23 ± 0.38, D 1.53 ± 0.33, W 1.09 ± 0.29, L 1.4 ± 0.3, Y 1.48 ± 0.33, H 1.61 ± 0.23, S 1.44 ± 0.3, R 1.42 ± 0.38
E375: C 1.31 ± 0.31, T 0.94 ± 0.28, Q 1.12 ± 0.61, H 1.24 ± 0.57, N 1.47 ± 0.16, G 1.49 ± 0.32, R 1.46 ± 0.21, Y 1.52 ± 0.24, D 1.58 ± 0.34, F 1.29 ± 0.29, K 1.56 ± 0.51, P 1.53 ± 0.29, A 1.13 ± 0.25, V 1.27 ± 0.12, S 1.39 ± 0.21, I 1.59 ± 0.28, L 1.04 ± 0.15, W 1.54 ± 0.31
Y362: V 1.32 ± 0.36, R 1.39 ± 0.15, I 1.56 ± 0.15, F 1.05 ± 0.12, C 1.33 ± 0.15, N 1.47 ± 0.15, E 0.99 ± 0.45, L 1.17 ± 0.24, P 1.58 ± 0.14, G 1.15 ± 0.18, W 1.31 ± 0.22, M 1.61 ± 0.21, T 1.6 ± 0.14, H 1.44 ± 0.13, A 1.42 ± 0.26, S 1.25 ± 0.19
A377: H 0.0602 ± 0.3, Q 1.59 ± 0.23, M 1.51 ± 0.27, I 1.55 ± 0.2, L 1.04 ± 0.16, T 1.59 ± 0.28, W 0.843 ± 0.75, V 1.31 ± 0.34, P 1.4 ± 0.38, Y 1.49 ± 0.16, R 1.6 ± 0.26, E -0.00596 ± 0.15, K 1.63 ± 0.28, G 1.01 ± 0.21, S 1.24 ± 0.24
Q364: G 0.7 ± 0.2, R 1.1 ± 0.27, A 1.53 ± 0.15, S 1.4 ± 0.19, T 1.46 ± 0.14, H 0.685 ± 0.66, M 0.768 ± 0.13, L 1.33 ± 0.24, Y 1.53 ± 0.17, C 1.28 ± 0.32, E 0.253 ± 0.34, I 1.26 ± 0.47, P 1.4 ± 0.27, V 1.11 ± 0.14, F 1.28 ± 0.27, D 0.845 ± 0.44, W 0.791 ± 0.5
E376: G 1.18 ± 0.25, A 1.4 ± 0.35, I 1.54 ± 0.28, S 1.57 ± 0.24, Y 1.56 ± 0.19, P 1.31 ± 0.15, H 0.914 ± 0.14, C 1.46 ± 0.15, K 1.41 ± 0.61, D 0.267 ± 0.78, V 1.07 ± 0.15, Q 0.896 ± 0.46, F 1.35 ± 0.37, L 1.42 ± 0.28, W 0.781 ± 0.22, M 0.943 ± 0.45, R 1.39 ± 0.16, T 1.55 ± 0.26
F366: R 1.52 ± 0.17, Y 1.24 ± 0.65, M 1.48 ± 0.27, C 1.09 ± 0.4, I 1.08 ± 0.28, D 1.6 ± 0.14, L 1.16 ± 0.27, E 1.6 ± 0.14, A 0.753 ± 0.65, W 1.58 ± 0.14, P 1.62 ± 0.14, G 1.55 ± 0.13, V 1.42 ± 0.54, S 1.58 ± 0.13
